Values of other authors as cited in patent US9624506B2, “Glyphosate resistance enhancement” (Keygene N.V., priority 2011, dated 2017).

Tests used:
[1] = Salmonella EPSPS; cited from earlier work
[2] = Salmonella EPSPS; cited from earlier work; remark: listed apart in the source

B1: T42M: T42M mutation in Salmonella EPSPS enzyme (protein, UniProt P07637 1-427, looked up, variant T42M)
3-phosphoshikimate …: MESLTLQPIARVDGAINLPGSKSVSNRALLLAALACGKTALMNLLDSDDVRHMLNALSALGINYTLSADRTRCDITGNGGALRAPGALELFLGNAGTAMRPLAAALCLGQNEIVLTGEPRMKERPIGHLVDSLRQGGANIDYLEQENYPPLRLRGGFTGGDIEVDGSVSSQFLTALLMTAPLAPKDTIIRVKGELVSKPYIDITLNLMKTFGVEIANHHYQQFVVKGGQQYHSPGRYLVEGDASSASYFLAAGAIKGGTVKVTGIGRKSMQGDIRFADVLEKMGATITWGDDFIACTRGELHAIDMDMNHIPDAAMTIATTALFAKGTTTLRNIYNWRVKETDRLFAMATELRKVGAEVEEGHDYIRITPPAKLQHADIGTYNDHRMAMCFSLVALSDTPVTILDPKCTAKTFPDYFEQLARMSTPA
[1]
  higher tolerance for glyphosate: 26 fold
[2]
  lower affinity for its normal substrate (PEP): 25 fold
